# According to US20200270586A1 (PROMEGA, published 2020):
# Target: T1, LgTrip 3092 (SEQ ID NO: 19)
# T1 construct: also called LgTrip 3092 His; ATG 3092
# Assay: tripartite luminescence complementation (with pep86 as third part)
binder,measurement,value
GSMLFRVTINS [SmTrip9 pep245],binding result,binds
